assay: yeast display, Sf9 membrane polyspecificity reagent, FACS + sequencing; frameworks hold sequencing errors
Method in brief: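 Polyreactivity labels are assigned by the sorting gate from which each nanobody was recovered. The gates were low and high (top ~1%), set on anti-HA fluorescence for expression and streptavidin fluorescence for reagent binding. Before sorting, galactose-induced (36–48 hours) yeast display cells were stained for 1 hour at 4 °C with 10% biotinylated, detergent-solubilized Sf9 membrane reagent.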

| Sequence | polyreactivity (PSR sort gate) |
| --- | --- |
| QVQLVESGGGLVQAGGSLRLSCAASGSIFYRNAMGWYRQAPGKERELVAAISASGGSTYYADSVKGRFTISRDNAKNTVYLQMNSLNPEDTAFYYCAVEYRKSRSYYPYYYWGQGTQVTVSS | high polyreactivity |
| QVQLVESGGGLVQAGGSLRLSCAASGSIFYRNAMGWYRQAPGKERELVAAISSDGSTNYADSVKGRFTISRDNAKNTVYLQMNSLKPEDTAVYFCAAPWTQILDYWGQGTQVTVSS | low polyreactivity |
| QVQLVESGGGLVQAGGSLRLSCAASGSIFYRNAMGWYRQAPGKERELVAAITSRGGRTYYADSVKGRFTISRDNAKNTVYLQMTSLKPEDTAVYYCAADYRYPAHSYGYWGQGTQVTVSS | high polyreactivity |
| QVQLVESGGGLVQAGGSLRLSCAASGSIFYRNAMGWYRQAPGKERELVAAITWSGVNTYYADSVKGRFTISRDNAKNTVYLQMNSLKPEDTAVYYCAVPSRYWLNRGFDYWGQGTQVTVSS | low polyreactivity |
| QVQLVESGGGLVQAGGSLRLSCAASGSIFYRYAMGGYRQAPGKERELVAAISSRGGSTYYADSVKGRFTISRDTAKNTVYLQMNSLKPEDTAVYYCNKDNHDLELPVEFEYWGQGTQVTVSS | high polyreactivity |
| QVQLVESGGGLVQAGGSLRLSCAASGSIFYRYVMGWYRQAPGKERELVAAITSDGSTNYADSVKGRFTISRDNAKNTVYLQMNSLKPEDTAVYYCNARSYRGRFDYWGQGTQVTVSS | low polyreactivity |
| QVQLVESGGGLVQAGGSLRLSCAASGSIFYSNAMGLSRQAPGKEREWVATITSGDSTNYADSVKGRFTISRDNAKNTVYLQMNSLKPEDTAVYYCAADSSLYEWFDWPWERGQSVESWGQGTQVTVSS | low polyreactivity |
| QVQLVESGGGLVQAGGSLRLSCAASGSIFYSNAMGWYRQAPGKERQLVAAIDSGTSTNYADSVKGRFTISRDNAKNTVYLQMNSLKPEDTAVYYCARLLGPVRDKYDYDYWGQGTQVTVSS | low polyreactivity |
| QVQLVESGGGLVQAGGSLRLSCAASGSIFYSYAMGGYRQAPGKERELVAAITDSGDSTYYADSVKGRFTISRDNAKNTVYLQMNSLKPEDTAVYYCAAGFYPYYYWGQGTQVTVSS | low polyreactivity |
| QVQLVESGGGLVQAGGSLRLSCAASGSIFYSYAMGWYRHAPGKERELVAAISWDASTYYADSVKGRFTISRDNAKNTVYLQMNSLKPEDTAVYYCNADIPYYFVYDAYDFWGQGTQVTVSS | low polyreactivity |
| QVQLVESGGGLVQAGGSLRLSCAASGSIFYSYAMGWYRQAPGKEREFVATITWSGGRTYYADSVKGRFTISRDNAKNTFYLQMNSLKPEDTAVYYCNKRLFPYKGDYWGQGTQVTVSS | low polyreactivity |
| QVQLVESGGGLVQAGGSLRLSCAASGSIFYSYAMGWYRQAPGKERELVAAITDSGDDTYYADSVKGRFTISRDNAKNTVYLQMNSLKPEDSAVYYCAAEQIYYTSDSSYFVTYDDWGQGTQVSVSS | high polyreactivity |
| QVQLVESGGGLVQAGGSLRLSCAASGSIFYTNAMGWYRPAPGKERELVAAIRTGGSTNYADSVKGRFTISRDNAKNTVYLQMNSLKPEDTAVYYCAAAYGYGHKKYGYWGQATQVTVSS | low polyreactivity |
| QVQLVESGGGLVQAGGSLRLSCAASGSIFYTNAMGWYRQAPGKEMEFVASITYRGSNTYYADSVKGRFTISRDNAKTTVYLQMNSLKPEDTAVYYCGADSFYYRPEYDYWGLGTQVTVSS | low polyreactivity |
| QVQLVESGGGLVQAGGSLRLSCAASGSIFYTNAMGWYRQAPGKERELVAAIRWSGGRTYYADSVKGRFTISRDNAKNTVYLQMNSLKPEDTAVYYCNKVPRTPIPYKYGYWGQGTQVTVSS | high polyreactivity |
| QVQLVESGGGLVQAGGSLRLSCAASGSIFYTYAMGWYRQAPGKERELVAAISSGGSTNYADSVKGRFTISRDNPKNTVYLQMNSLKPEDTAVYYCAAEYTRSFYIYYRFGYWGQGTQVTVSS | high polyreactivity |

| Sequence | polyreactivity (PSR sort gate) |
| --- | --- |
| QVQLVESGGGLVQAGGSLRLSCAASGSIFYTYAMGWYRQAPGKERELVAAISSGGSTTYADSVKGRFTISRDNAKNTVYLQMKSLKPEDTAVYYCNTSYRKKKRYYYWGQGTQVTVSS | high polyreactivity |
| QVQLVESGGGLVQAGGSLRLSCAASGSIFYVNAMGWYRQAPGKERELVAAINWSGGRTYYADSVKGRFTISRDTAKNTVYLQMNSLKPEDTAVYYCAATVRRRYERYNYWGQGTQVTVSS | high polyreactivity |
| QVQLVESGGGLVQAGGSLRLSCAASGSIFYVNAMGWYRQAPGKERELVAAISVRGGRTYYADSVKGRFTISRDNAKNTVYLQMNSLKPEDTAVYYCAAKSVYKFGDDYWGQGTQVTVSS | high polyreactivity |
| QVQLVESGGGLVQAGGSLRLSCAASGSIFYVNAMGWYRQAPGKERELVAVNADSVKGRFTISRDNAKNTVYLQMNSLKPEDTAVYYCAAGVNSTTRIYDYWGQGTQVTVSS | low polyreactivity |
| QVQLVESGGGLVQAGGSLRLSCAASGSIFYVNAMGWYRQEPGKERELVAAISYRGGSTYYADSVKGRFTISRDNAKNTVYLQMNSLKPEDTSVYYCAKRLYGSYHSDYWGQGTQVTVSS | high polyreactivity |
| QVQLVESGGGLVQAGGSLRLSCAASGSIFYVNTIGWYRQAPGKERELVAGITSRGGSTYYADSVKGRFTISRDNAKNTVYLQMNSLKPEDTAVYYCAKRAYGTALYRGYGYWGQGTQVTVSS | low polyreactivity |
| QVQLVESGGGLVQAGGSLRLSCAASGSIFYVNTMGWYRQAPGKERELVAVIDYGGDSTYYADSVKGRFTISRDNAKNTVYLQMNSLKPEDTAVYYCAADAWLLPYNYWGQGTQVTVSS | low polyreactivity |
| QVQLVESGGGLVQAGGSLRLSCAASGSIFYVYAMGWSRQAPGKERELVASITRRRTNYADSVKGRFTISRDTAKNTVYLQMNSLKPEDTAVYYCAATTYVRQYATYDYWGQGTQVTVSS | high polyreactivity |
| QVQLVESGGGLVQAGGSLRLSCAASGSIFYWNAMGWYRQAPGKERELVAAINYSGDSTYYADSVKGRFTISRDNAKNTVYLQMNSLKPEDTEVYYCNFDYWGQGTQVTVSS | low polyreactivity |
| QVQLVESGGGLVQAGGSLRLSCAASGSIFYWNAMGWYRQAPGKERELVAAISYNGGSTYYADSVKGRFTISRDNAKNTVYLQMNSLKPEDTAVYYCAADNYYYGYEYWGQGTQVTVSS | high polyreactivity |
| QVQLVESGGGLVQAGGSLRLSCAASGSIFYWYAMGWYRQAPGKERELVAAISSSNDSTDYADSVKGRFTISRDNAKNTVYLQMNSLKPEDTAVYYCAARYGTIQYDYWGQGTQVTVSS | low polyreactivity |
| QVQLVESGGGLVQAGGSLRLSCAASGSIFYWYAMGWYRQAPGKERELVAAITRAGSTNYADSVKGRFTISRDNAKNTVYLQMNSLKPEDTAVYYCAVAVTSYSSKKLYYWGQGTQVTVSS | low polyreactivity |
| QVQLVESGGGLVQAGGSLRLSCAASGSIFYYAMGWYRQAPGKERELVAAITTGDGTNYADSVKGRFTISRDNAKNTVYLQMNSLKPEDTAVYYCNSLPYQVWKRYSWGQGTQVTVSS | low polyreactivity |
| QVQLVESGGGLVQAGGSLRLSCAASGSIFYYAMGWYRQAPGKERELVATITRRGGRTHYADSVKGRFTLSRDNAKNTVYLQMNSLKPEDTAVYYCAADSYSYRYYYWGQGTQVTVSS | high polyreactivity |
| QVQLVESGGGLVQAGGSLRLSCAASGSIFYYNAMGWYRQAPGKERELVATIRTSGGSTYYADSVKGRFTISRDNAKNTVYLQMNSLKPEDTAVYYCAARDLRKLYSRYPYYYWGQGTQVTVSS | high polyreactivity |
| QVQLVESGGGLVQAGGSLRLSCAASGSIFYYNAMGWYRQAPGKERELVATITSAVSTNYADSVKWRFTISRDNAKNTVYLQMNSLKPEDTAVYYCAADVVYISGYDYWGQGTQVTVSS | low polyreactivity |

Source: the nanobody polyreactivity screen of Harvey et al. (2022)
